Measured values as given in PMC4669772, “The conserved Trp114 residue of thioredoxin reductase 1 has a redox sensor-like function triggering oligomerization and crosslinking upon oxidative stress related to cell death” (Cell Death & Disease, 2015).
Numbering of substitutions follows the chain as printed.

B1: recombinant rat TrxR1 W114E (enzyme)
chain: MNDSKDAPKSYDFDLIIIGGGSGGLAAAKEAAKFDKKVMVLDFVTPTPLGTRWGLGGTCVNVGCIPKKLMHQAALLGQALKDSRNYGWKLEDTVKHDWEKMTESVQNHIGSLNEGYRVALREKKVVYENAYGKFIGPHKIMATNNKGKEKVYSAERFLIATGERPRYLGIPGDKEYCISSDDLFSLPYCPGKTLVVGASYVALECAGFLAGIGLDVTVMVRSILLRGFDQDMANKIGEHMEEHGIKFIRQFVPTKIEQIEAGTPGRLKVTAKSTNSEETIEDEFNTVLLAVGRDSCTRTIGLETVGVKINEKTGKIPVTDEEQTNVPYIYAIGDILEGKLELTPVAIQAGRLLAQRLYGGSTVKCDYDNVPTTVFTPLEYGCCGLSEEKAVEKFGEENIEVYHSFFWPLEWTVPSRDNNKCYAKVICNLKDNERVVGFHVLGPNAGEVTQGFAAALKCGLTKQQLDSTIGIHPVCAEIFTTLSVTKRSGGDILQSGCUG
modifications: selenocysteine (Sec, U) at 498
notes: thioredoxin reductase 1, rat, with Trp114 changed to Glu; also called Glu114; source: E. coli BL21 (DE3) gor-, purified (2'5'-ADP Sepharose, Superdex G200 size exclusion)
B2: recombinant rat thioredoxin reductase 1 (TrxR1), wild type (enzyme)
chain: B1 chain with E114W
modifications: selenocysteine (Sec, U) at 498
notes: thioredoxin reductase 1, rat, expressed from a pET-TRSTER-derived plasmid with pSUABC; FAD-containing homodimer; tetramers (two dimers) were purified from the same preparation in the absence of reductant; In the tetramer two of the four Trp114 are modified (oxidised) and linked; also called WT; wild-type TrxR1; source: E. coli BL21 (DE3) gor-, purified (2'5'-ADP Sepharose, Superdex G200 size …)
B3: recombinant rat TrxR1 W114G (enzyme)
chain: B1 chain with E114G
modifications: selenocysteine (Sec, U) at 498
notes: thioredoxin reductase 1, rat, with Trp114 changed to Gly; also called Gly114; source: E. coli BL21 (DE3) gor-, purified (2'5'-ADP Sepharose, Superdex G200 size exclusion)
B4: recombinant rat TrxR1 W114R (enzyme)
chain: B1 chain with E114R
modifications: selenocysteine (Sec, U) at 498
notes: thioredoxin reductase 1, rat, with Trp114 changed to Arg; also called Arg114; source: E. coli BL21 (DE3) gor-, purified (2'5'-ADP Sepharose, Superdex G200 size exclusion)
B5: recombinant rat TrxR1 W114F (enzyme)
chain: B1 chain with E114F
modifications: selenocysteine (Sec, U) at 498
notes: thioredoxin reductase 1, rat, with Trp114 changed to Phe; also called Phe114; source: E. coli BL21 (DE3) gor-, purified (2'5'-ADP Sepharose, Superdex G200 size exclusion)

Legend:
[1] = molecular target: the molecule itself; test: SEC; propensity of purified recombinant rat TrxR1 variants to form oligomers (Supplementary Figure S8); oligomers separated on Superdex G200 at 4 °C
[2] = molecular target: the molecule itself; test: native gel or EMSA; purified recombinant TrxR1 tetramers, native PAGE under reducing conditions
[3] = molecular target: the molecule itself; test: native gel or EMSA; purified recombinant TrxR1 tetramers, native PAGE under oxidized (non-reducing) conditions; dimers to tetramer

| Protein | binding result [1] | stoichiometry N [2] | stoichiometry N [3] |
| --- | --- | --- | --- |
| B1 | binds | – | – |
| B2 | – | 2 | 4 |
| B3 | binds | – | – |
| B4 | binds | – | – |
| B5 | binds | – | – |
